Experimental data taken from patent publication US20250051455A1.

Experiments:
[1] = target: recombinant soluble human HLA-G β2M MHC class I complex, monomer (human); test: SPR, reference antibody against monomeric wt HLA-G
[2] = target: modified human HLA-G β2M MHC class I complex (HLA-G specific amino acids replaced by HLA-A consensus amino acids) (human); test: SPR, reference antibody against degrafted HLA-G
[3] = target: recombinant soluble human HLA-G β2M MHC class I complex, trimer (human); test: competition ELISA, one antibody concentration; competitor coated ILT4-Fc
[4] = target: recombinant soluble human HLA-G β2M MHC class I complex, dimer (human); test: as above
[5] = target: recombinant soluble human HLA-G β2M MHC class I complex, monomer (human); test: as above
[6] = target: recombinant soluble human HLA-G β2M MHC class I complex, trimer (human); test: competition ELISA, one antibody concentration; competitor coated ILT2-Fc
[7] = target: recombinant soluble human HLA-G β2M MHC class I complex, dimer (human); test: as above
[8] = target: recombinant soluble human HLA-G β2M MHC class I complex, monomer (human); test: as above
[9] = target: human HLA-G expressed on cells (JEG3 natural; SKOV3 HLA-G+ and PA-TU-8902 HLA-G+ transfectants) (human) (UniProt P17693); test: flow cytometry, JEG3 cells pre-incubated with antibody (40 µg/ml final); competitor ILT2-Fc chimera

Kd [1] [µM]	koff [1] [s⁻¹]	kon [1] [M⁻¹ s⁻¹]	t 1/2 [1] [min]	Kd [2] [µM]	koff [2] [s⁻¹]	kon [2] [M⁻¹ s⁻¹]	t 1/2 [2] [min]	% inhibition of ILT4 binding [3] [%]	% inhibition of ILT4 binding [4] [%]	% inhibition of ILT4 binding [5] [%]	% inhibition of ILT2 binding [6] [%]	% inhibition of ILT2 binding [7] [%]	% inhibition of ILT2 binding [8] [%]	Inhibition of ILT2 binding to Jeg3 cells [9] [%]	Substance
0.012	0.00085	74000	14	0.013	0.0012	89000	10								MEM-G/11 (antibody)
0.02	0.0037	180000	3					58	-20	-898	3	-132	12	-55.8	G233 (antibody)
0.0077	0.0011	150000	10	0.3	0.036	120000	0.3	-40	-44	-14	4	1	-442	-27.9	MEM/G9 (antibody)
